Measurements as given in paper PMC3331935 (Developmental Cell, 2012).

Columns and labels:
Test in all cases: alkaline phosphatase fusion protein binding assay
Notch2 = Notch2 (UniProt O35516 26-2473)
Notch4 = Notch4 (UniProt P31695 21-1964)
[1] = target: Notch1, transfected into HEK293 cells and immunoprecipitated on protein G beads (UniProt Q07008 19-2531)
Notch3 = Notch3 (UniProt Q61982 40-2318)

Sequence of Notch4 (P31695 21-1964): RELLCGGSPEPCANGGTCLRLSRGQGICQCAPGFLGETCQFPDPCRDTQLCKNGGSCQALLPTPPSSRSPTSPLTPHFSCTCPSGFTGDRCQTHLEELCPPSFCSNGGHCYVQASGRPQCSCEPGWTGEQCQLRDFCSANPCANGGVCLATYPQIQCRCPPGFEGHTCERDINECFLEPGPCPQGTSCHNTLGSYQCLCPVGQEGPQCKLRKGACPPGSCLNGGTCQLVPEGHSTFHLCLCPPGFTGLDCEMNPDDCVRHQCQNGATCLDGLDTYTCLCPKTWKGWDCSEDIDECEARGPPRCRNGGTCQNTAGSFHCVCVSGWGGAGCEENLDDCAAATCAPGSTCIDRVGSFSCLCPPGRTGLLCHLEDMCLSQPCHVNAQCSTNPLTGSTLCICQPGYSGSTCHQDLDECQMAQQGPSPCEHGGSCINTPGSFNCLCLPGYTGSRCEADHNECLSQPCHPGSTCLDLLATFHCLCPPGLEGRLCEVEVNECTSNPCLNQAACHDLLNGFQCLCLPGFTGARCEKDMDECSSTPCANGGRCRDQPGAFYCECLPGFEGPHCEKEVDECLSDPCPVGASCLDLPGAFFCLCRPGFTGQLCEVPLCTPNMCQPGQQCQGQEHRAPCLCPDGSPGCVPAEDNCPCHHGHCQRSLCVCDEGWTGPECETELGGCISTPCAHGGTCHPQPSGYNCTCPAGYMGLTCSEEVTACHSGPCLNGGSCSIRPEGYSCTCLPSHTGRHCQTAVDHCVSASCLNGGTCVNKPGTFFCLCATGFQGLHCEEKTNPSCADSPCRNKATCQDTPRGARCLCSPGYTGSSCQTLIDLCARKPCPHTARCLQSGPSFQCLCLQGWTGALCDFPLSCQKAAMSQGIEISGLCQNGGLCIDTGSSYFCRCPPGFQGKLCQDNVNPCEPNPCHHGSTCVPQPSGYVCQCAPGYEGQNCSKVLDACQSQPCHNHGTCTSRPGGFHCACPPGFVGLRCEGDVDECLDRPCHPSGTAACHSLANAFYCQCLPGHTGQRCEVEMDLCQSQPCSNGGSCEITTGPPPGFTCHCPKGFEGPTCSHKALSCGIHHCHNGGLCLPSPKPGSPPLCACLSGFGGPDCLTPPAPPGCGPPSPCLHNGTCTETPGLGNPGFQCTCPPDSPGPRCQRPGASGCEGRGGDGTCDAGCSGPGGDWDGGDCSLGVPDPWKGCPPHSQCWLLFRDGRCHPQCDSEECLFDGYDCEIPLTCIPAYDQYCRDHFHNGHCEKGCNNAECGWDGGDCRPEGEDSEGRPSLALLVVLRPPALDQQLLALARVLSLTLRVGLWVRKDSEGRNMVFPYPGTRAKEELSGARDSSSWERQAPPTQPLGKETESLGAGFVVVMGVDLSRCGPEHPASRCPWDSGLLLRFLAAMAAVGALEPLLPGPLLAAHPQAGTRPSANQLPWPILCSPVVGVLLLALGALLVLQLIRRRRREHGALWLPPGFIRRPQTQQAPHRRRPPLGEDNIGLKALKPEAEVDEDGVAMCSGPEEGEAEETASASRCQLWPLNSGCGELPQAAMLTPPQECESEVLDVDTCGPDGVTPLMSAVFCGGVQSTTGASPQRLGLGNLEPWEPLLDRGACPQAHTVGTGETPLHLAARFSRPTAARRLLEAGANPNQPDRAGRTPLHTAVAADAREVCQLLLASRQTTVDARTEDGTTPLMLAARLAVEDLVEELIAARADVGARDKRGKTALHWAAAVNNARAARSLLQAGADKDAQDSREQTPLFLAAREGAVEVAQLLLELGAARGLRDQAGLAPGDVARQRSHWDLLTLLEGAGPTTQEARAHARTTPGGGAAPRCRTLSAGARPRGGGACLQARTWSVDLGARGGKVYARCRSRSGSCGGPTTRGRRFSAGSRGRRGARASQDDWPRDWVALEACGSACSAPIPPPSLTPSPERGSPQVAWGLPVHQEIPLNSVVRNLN
Sequence of Notch1, transfected into HEK293 cells and immunoprecipitated on protein G beads (Q07008 19-2531): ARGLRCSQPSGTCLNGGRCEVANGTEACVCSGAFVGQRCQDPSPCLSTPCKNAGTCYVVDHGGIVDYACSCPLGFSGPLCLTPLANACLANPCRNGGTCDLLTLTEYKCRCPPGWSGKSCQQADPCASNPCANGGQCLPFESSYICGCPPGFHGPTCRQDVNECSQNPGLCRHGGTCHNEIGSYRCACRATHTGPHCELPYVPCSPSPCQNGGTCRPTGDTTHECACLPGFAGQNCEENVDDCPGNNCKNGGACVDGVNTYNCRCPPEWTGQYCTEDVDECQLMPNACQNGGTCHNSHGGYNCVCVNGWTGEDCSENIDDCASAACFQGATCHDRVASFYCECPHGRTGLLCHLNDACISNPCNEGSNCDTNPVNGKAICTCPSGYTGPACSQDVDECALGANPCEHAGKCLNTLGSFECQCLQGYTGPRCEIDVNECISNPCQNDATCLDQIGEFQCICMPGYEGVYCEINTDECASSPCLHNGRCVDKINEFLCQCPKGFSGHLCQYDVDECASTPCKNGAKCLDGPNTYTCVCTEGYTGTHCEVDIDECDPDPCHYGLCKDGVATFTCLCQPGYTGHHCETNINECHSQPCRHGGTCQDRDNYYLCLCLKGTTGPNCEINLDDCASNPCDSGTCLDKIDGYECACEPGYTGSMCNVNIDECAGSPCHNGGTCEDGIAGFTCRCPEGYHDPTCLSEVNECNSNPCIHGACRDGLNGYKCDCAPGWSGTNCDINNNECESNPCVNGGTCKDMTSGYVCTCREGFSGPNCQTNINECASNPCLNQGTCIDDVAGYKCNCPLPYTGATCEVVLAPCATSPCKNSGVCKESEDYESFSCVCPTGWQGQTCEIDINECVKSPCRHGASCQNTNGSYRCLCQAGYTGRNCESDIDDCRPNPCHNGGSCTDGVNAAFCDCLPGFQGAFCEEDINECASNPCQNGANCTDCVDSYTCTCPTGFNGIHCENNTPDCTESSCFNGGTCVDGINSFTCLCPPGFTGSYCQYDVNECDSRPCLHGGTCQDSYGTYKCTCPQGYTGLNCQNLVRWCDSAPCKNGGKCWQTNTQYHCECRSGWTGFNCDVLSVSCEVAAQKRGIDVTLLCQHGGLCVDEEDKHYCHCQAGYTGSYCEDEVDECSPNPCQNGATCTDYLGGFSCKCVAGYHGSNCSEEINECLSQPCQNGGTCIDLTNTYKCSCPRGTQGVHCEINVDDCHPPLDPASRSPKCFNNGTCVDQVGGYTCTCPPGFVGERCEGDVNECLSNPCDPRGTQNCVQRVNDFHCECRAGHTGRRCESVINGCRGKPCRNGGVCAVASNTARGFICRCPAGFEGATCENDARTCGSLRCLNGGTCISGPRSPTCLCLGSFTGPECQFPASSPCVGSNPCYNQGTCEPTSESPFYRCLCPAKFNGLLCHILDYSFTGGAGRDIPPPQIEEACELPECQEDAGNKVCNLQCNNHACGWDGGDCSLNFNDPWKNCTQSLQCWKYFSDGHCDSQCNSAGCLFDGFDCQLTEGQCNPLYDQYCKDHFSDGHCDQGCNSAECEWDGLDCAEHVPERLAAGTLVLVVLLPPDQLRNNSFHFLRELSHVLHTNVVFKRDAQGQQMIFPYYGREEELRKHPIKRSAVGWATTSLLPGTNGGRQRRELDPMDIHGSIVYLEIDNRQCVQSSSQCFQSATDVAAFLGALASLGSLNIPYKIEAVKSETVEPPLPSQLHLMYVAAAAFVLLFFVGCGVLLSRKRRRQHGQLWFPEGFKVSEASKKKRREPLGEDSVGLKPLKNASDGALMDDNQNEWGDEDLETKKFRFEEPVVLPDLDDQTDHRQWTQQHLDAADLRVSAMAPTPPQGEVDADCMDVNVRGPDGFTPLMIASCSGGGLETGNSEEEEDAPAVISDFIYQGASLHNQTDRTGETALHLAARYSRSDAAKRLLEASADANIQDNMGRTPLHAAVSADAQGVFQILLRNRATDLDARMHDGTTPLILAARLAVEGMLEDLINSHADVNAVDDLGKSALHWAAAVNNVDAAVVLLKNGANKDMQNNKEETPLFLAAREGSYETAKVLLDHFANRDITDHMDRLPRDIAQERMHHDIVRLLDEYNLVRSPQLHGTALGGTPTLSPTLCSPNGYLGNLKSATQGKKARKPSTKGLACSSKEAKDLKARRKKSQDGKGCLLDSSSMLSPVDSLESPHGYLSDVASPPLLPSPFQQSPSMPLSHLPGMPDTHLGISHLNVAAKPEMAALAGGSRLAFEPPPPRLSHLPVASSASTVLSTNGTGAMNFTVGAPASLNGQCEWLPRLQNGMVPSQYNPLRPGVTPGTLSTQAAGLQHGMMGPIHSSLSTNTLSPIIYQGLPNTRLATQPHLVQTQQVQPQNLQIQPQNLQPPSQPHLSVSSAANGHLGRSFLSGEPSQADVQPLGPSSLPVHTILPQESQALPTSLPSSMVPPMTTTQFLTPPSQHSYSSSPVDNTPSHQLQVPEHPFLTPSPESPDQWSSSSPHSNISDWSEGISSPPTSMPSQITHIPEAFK

Kd (Notch2): 8.8 nM | Kd (Notch4): 6.3 nM | Kd [1]: 3.3 nM | Kd (Notch3): 3.3 nM
B1: alkaline phosphatase tagged Botch (Botch-N-AP) (natural protein, UniProt Q8R3J5 1-223, looked up)
chain: MKQESASQSTPPPSLSPAPSSAQPSWGDGDPQALWIFGYGSLVWKPDFAYSDSRVGFVRGYSRRFWQGDTFHRGSDKMPGRVVTLLEDREGCTWGVAYQVRGEQVNEALKYLNVREAVLGGYDTKEVTFYPQDTPDQPLTALAYVATPQNPGYLGPAPEEVIATQILACRGFSGHNLEYLLRLADFMQLCGPQAQDEHLEAIVDAVGTLLPCSYLPEQPLALT
